One block for each compound: values may come before it. Ends that are not written are not given here. Peptide text beside a SMILES is read from it. * marks the point of attachment. X1 = CC[N+]1=C(C=CC=CC=C2N(CCCCCC(=O)*)c3ccc4c(S(=O)(=O)O)cc(S(=O)(=O)O)cc4c3C2(C)C)C(C)(C)c2c1ccc1c(S(=O)(=O)O)cc(S(=O)(=O)[O-])cc21
Legend:
[1] = system: MT1-MMP; experiment: AFM force curve measurement, peptide on tip against immobilized MT1-MMP; type: binding, human; details: 25 °C; for Binding force (peak position of force histogram): peptide on AFM tip via NHS-PEG18-aldehyde, MT1-MMP on APTES mica, PBS, 300 force curves, Gaussian fit
Method: (§1) The MT1-MMP catalytic domain (20 kDa) was expressed in Escherichia coli (E. coli) as inclusion bodies. The activated form was produced through refold method. The recombinant human MT1-MMP catalytic domain was produced by E. coli BL21 that carried expression plasmids. The bacteria were grown to an optical density of 0.4 at 37 °C prior to induction. The overexpression of the protein of interest was induced by adding […] to a final concentration of 0.5 mM. Cultivation was proceeded for 4 h before the bacteria were broken by an ultrasonic wave. The inclusion bodies (proMT1-MMP) were solubilized and purified through his-tag affinity chromatography (General Electric, USA), as well as refolded by using dialysis bags to gradually reduce high denaturant concentrations in this process. The refolding buffer included 50 mM HEPES, 10 mM CaCl2, 200 mM NaCl, 1 mM phenylmethylsulfonyl fluoride, 20 μM ZnCl2, 0.01% Brij-35, 5% Glycerol, 100 μg/ml DNase, at a pH 7.5.
The surface layer of the mica was stripped to expose the silanol group-coated surface. Then, the mica was treated with 3-aminopropyltriethoxysilane (APTES, vapor) for 1.5 h at room temperature and dried in vacuum. To immobilize the protein or the peptide, the activated mica surface was immerged into MT1-160p or MT1-MMP solution (300 µg/mL in PBS) for 15 min, rinsed and kept in PBS buffer.
AFM cantilever tips (MSCT) were purchased from Veeco (CA). The polypeptides were covalently immobilized on the tips by using chemical reactions as previously described. […]
The force curves were measured by using a PicoPSM 5500 instrument (Agilent Technologies, MA). […] The interaction force were detected at different points on the substrate. Over 1,000 force–distance cycles were collected, and a total of 300 force curves were recorded at different positions on the substrate. The average force values were summarized and calculated in the form of histograms and were expressed as a probability (%), which was obtained by dividing each count number by the total number of measured force curves.

[2] = system: MDA-MB-435 tumors (MT1-MMP); experiment: Whole-body small animal near-infrared fluorescence imaging
Method: (§2) All of the animal experiments were conducted in accordance with the principles and procedures outlined in the ethics committee of Jilin University, and approved by Animal Care and Use Committee (CC/ACUCC) of Xiamen University. Subcutaneous sites of athymic nude mice (BALB/c, 6 weeks old, female, 19–21 g) were injected with a suspension of 1 × 10^7 breast carcinoma MDA-MB-435 cells in PBS (100 μL). Tumor growth was assessed with caliper measurements every 2 days, and tumor size was determined using the formula: V = a^*(b^2)/2, where a is the maximum length and b is the maximum width of each tumor in mm respectively. The tumor-bearing mice (n = 5/group) were subjected to optical imaging experiments once the tumor volume (in the right front leg region) reached average size of 200 mm^3 (Error less than 18 mm^3), mice were randomly allocated into three groups: Cy5.5-MT1-AF7p-H4R, Cy5.5-MT1-AF7p-H4R-Block or Cy5.5-MT1-AF7p were injected via their tail vein with […]. Fluorescent images and analysis were performed by using an IVIS Lumina II imaging system (Caliper Life Sciences, MA, USA; Excitation Filter: 630 nm, Emission Filter: 700 nm) at different time point post-injection (1, 2, 4, 6, 12, and 24 h). During injection and image acquiring process, mice were anesthetized with 2.5% isoflurane in oxygen at a flow of 1.5 L/min. Images were normalized to the same scale and analyzed. For semi-quantitative comparison, the regions of interest (ROI) were drawn over the tissues of interest, and the scaled average signal (photons cm^−2 s^−1) for each area was measured. Fluorescent signals from ROI were further corrected by the mice body weights. Results were presented as the mean ± SD for a group of five animals.

[3] = as above; details: athymic nude BALB/c, mouse, in vivo, iv
Method: as §2

[4] = system: MDA-MB-435 tumors (MT1-MMP)
Method: The mice were injected with 1 nM Cy5.5-peptide to evaluate the distribution of affinity peptides in tumor tissues and major organs. At 4 h post-injection, the tumor-bearing mice were sacrificed, and their major organs, tissues, and tumors were harvested and placed on a black paper for ex vivo imaging (IVIS Lumina II, Caliper Life Sciences, MA, USA). The results were presented as the average scaled signal from the organs and the tumors.

[5] = system: MT1-MMP; experiment: Isothermal titration calorimetry; design: species or system human; details: 25 °C; 10 mM HEPES, 150 mM NaCl, pH 7.4; 1000 rpm; one-site binding model
Method: The ITC experiments were conducted by using a MicroCal ITC-200 system (General Electric, USA) to determine the thermodynamic parameters of the polypeptides. The peptide of interest was dissolved in 10 mM HEPES and 150 mM NaCl solution at pH 7.4. All titrations were performed at 25 °C by injecting aliquots of a 40 μL MT1-160p (1 mM) degassed solution in a syringe into the calorimeter cell containing 200 μL of binding peptides (0.1 mM) degassed solution at a stirring rate of 1000 rpm. The baseline was corrected manually and the heat data were processed by fitting the ITC data into the NanoAnalyze software.

[6] = system: MDA-MB-435 tumors (MT1-MMP); details: cited from earlier work
Method: Among the mutated peptides selected by virtual screening and docking based on the calculated lowest binding energy, the binding affinities were tested by conducting AFM, ITC, and cell fluorescence imaging in vitro. The tumor targeting effects of the optimal peptide were further confirmed by performing an in vivo imaging experiment in a tumor-bearing mice model.

[7] = system: DQ-gelatin from pig skin; experiment: Enzymatic activity of recombinant MT1-MMP; type: biochemical; details: refolded recombinant catalytic domain; unit not given
Method: as §1, with “The refolding buffer included 50 mM HEPES, 10 mM CaCl2, 200 mM NaCl, 1 mM phenylmethylsulfonyl fluoride, 20 μM ZnCl2, 0.01% Brij-35, 5% Glycerol, 100 μg/ml DNase, at a pH 7.5.” left out
The protein samples from induced lysates, inclusion bodies and renaturation were separated by 15% reducing sodium dodecyl sulfate–polyacrylamide gel electrophoresis (SDS–PAGE) gel followed by Coomassie Brilliant Blue R-250 (CBB) staining. Protein concentration was measured at each step by the BCA Protein Assay Kit (Thermo Scientific, USA) according to manufacturer’s instructions. After renaturation of MT1-MMP, the enzymatic activity of the recombinant MT1-MMP was measured by using fluorescein conjugated substrate, DQ™-gelatin from pig skin (Molecular Probes).

Compound: CC[N+]1=C(C=CC=CC=C2N(CCCCCC(=O)N[C@@H](Cc3c[nH]cn3)C(=O)N[C@@H](Cc3c[nH]c4ccccc34)C(=O)N[C@@H](CCCCN)C(=O)N[C@@H](CCCNC(=N)N)C(=O)N[C@@H](CC(C)C)C(=O)N[C@@H](Cc3c[nH]cn3)C(=O)N[C@@H](CC(N)=O)C(=O)N[C@H](C(=O)N[C@@H](CCCCN)C(=O)N[C@H](C(=O)N[C@@H](Cc3ccccc3)C(=O)N[C@@H](CC(C)C)C(=O)O)[C@@H](C)O)[C@@H](C)O)c3ccc4c(S(=O)(=O)O)cc(S(=O)(=O)O)cc4c3C2(C)C)C(C)(C)c2c1ccc1c(S(=O)(=O)O)cc(S(=O)(=O)[O-])cc21 [Cy5.5-MT1-AF7p-H4R] (X1-HWKRLHNTKTFL-OH; C-terminus assumed)
Binding force (peak position of force histogram) [1]: 260 pN
Tumor signal after blocking with free peptide ([2]; excess free MT1-AF7p-H4R (1 μM) injected 30 min prior): Low Cy5.5-MT1-AF7p-H4R accumulation was observed
Time of maximum tumor accumulation (T/M) ([2]; i.v., MDA-MB-435 tumor): 4 h
tissue to tissue ratio at 1 h [3]: 1.22 ± 0.22
tissue to tissue ratio at 2 h [3]: 2.77 ± 0.31
tissue to tissue ratio at 4 h [3]: 4.26 ± 0.56
Clearance route ([4]; 4 h post-injection, ex vivo quantification): prominent renal clearance
Tumor fluorescent signal ex vivo ([4]; 4 h post-injection, i.v. 1 nM Cy5.5-peptide, average scaled signal): 8.04 × 10^7
Tumor fluorescent signal relative to MT1-AF7p ([4]; 4 h post-injection, 8.04 × 10^7 vs. 2.51 × 10^7): 3.2 times
Fluorescent signals in blocking group ([4]; ex vivo, blocked with excess free MT1-AF7p-H4R): very few fluorescent signals were detected in the blocking group
Binding constant (Ka) [5]: 175000 M⁻¹

Compound: HWKKLHNTKTFL [MT1-AF7p-H4K, MT1-AF7p with histidine 4 mutated to Lys]
Affinity to MT1-MMP by AFM ([1]; single-molecule recognition force spectroscopy): had a nearly identical binding capacity with MT1-MMP than MT1-AF7P

Compound: CC[N+]1=C(C=CC=CC=C2N(CCCCCC(=O)N[C@@H](Cc3c[nH]cn3)C(=O)N[C@@H](Cc3c[nH]c4ccccc34)C(=O)N[C@@H](CCCCN)C(=O)N[C@@H](Cc3c[nH]cn3)C(=O)N[C@@H](CC(C)C)C(=O)N[C@@H](Cc3c[nH]cn3)C(=O)N[C@@H](CC(N)=O)C(=O)N[C@H](C(=O)N[C@@H](CCCCN)C(=O)N[C@H](C(=O)N[C@@H](Cc3ccccc3)C(=O)N[C@@H](CC(C)C)C(=O)O)[C@@H](C)O)[C@@H](C)O)c3ccc4c(S(=O)(=O)O)cc(S(=O)(=O)O)cc4c3C2(C)C)C(C)(C)c2c1ccc1c(S(=O)(=O)O)cc(S(=O)(=O)[O-])cc21 [Cy5.5-MT1-AF7p] (X1-HWKHLHNTKTFL-OH; C-terminus assumed)
Binding force (peak position of force histogram) [1]: 150 pN
tissue to tissue ratio at 4 h [3]: 1.98
Tumor accumulation in MDA-MB-435 xenografts ([6]; compared with negative control): significantly higher tumor accumulation
Binding constant (Ka) [5]: 107000 M⁻¹

Compound: Cy5.5 [reference compound]
Tumor accumulation of free dye ([6]; within 48 h post-injection): did not accumulate in the tumor site within 48 h post-injection

Tumor imaging effect vs MT1-AF7p ([2]; i.v. tail vein, 10 μM (1 nM in 100 μL PBS), Cy5.5-labeled, p ≤ 0.01, n = 5/group): better than MT1-AF7p (p ≤ 0.01)
Compound: HWKRLHNTKTFL [MT1-AF7p-H4R, HWKRLHNTKTFL]
Specificity and affinity to MT1-MMP in optical imaging in vivo ([2]; compared with MT1-AF7p): higher specificity and affinity to the receptor (MT1-MMP) in optical imaging in vivo
Fluorescence intensity in tumor site vs MT1-AF7p ([2]; i.v. tail vein, all time points from 2 h to 24 h, Cy5.5-labeled, n = 5/group): considerably stronger than that of MT1-AF7p at all the time points from 2 h to 24 h

Compound: MT1-MMP: recombinant human MT1-MMP catalytic domain (20 kDa) refolded from E. coli inclusion bodies
Enzymatic activity against DQ-gelatin [7]: 9.81 × 10^6

Compound: HWKHLHNTKTFL [MT1-AF7p]
Binding constant (Ka) [5]: 107000 M⁻¹

Reference: publication PMC6037669, “Optimization of a MT1-MMP-targeting Peptide and Its Application in Near-infrared Fluorescence Tumor Imaging” (Scientific Reports, 2018)
